Results: patent publication US9963688B2, “Heavy metal resistant esterase” (AMERICAN UNIVERSITY OF CAIRO, priority 2013, dated 2018)
“And” between values parts separate entries of the source, which are not always exact repeats. Equal entries are not always repeated.

Key:
Type in all cases: biochemical
[1] = Substrate specificity of EstATII
Experimental: (§1) Enzyme activity was determined by measuring the formation of p-nitrophenol (pNP) from the enzymatic hydrolysis of the p-nitrophenyl ester; p-nitrophenyl butyrate (Sigma-Aldrich). The reaction mixture contained p-nitrophenyl butyrate (pNPB) to a final concentration 0.1 mM and 50 mM Tris-HCl pH=8. In this study, the standard reaction was conducted at 65° C., initiated by the addition of EstATII and terminated by the addition of 10% SDS. Measurements were done at 410 nm using UV-spectrophotometer (Ultrospec 3100 pro, Amersham Biosciences) unless stated otherwise^20. All experiments were performed in triplicates. Substrate specificity of EstATII was determined using p-nitrophenol esters with varying side chain length. Short-chain fatty acid esters used were PNP-acetate (C2), PNP-butyrate (C4) and PNP-valerate (C5) and long-chain fatty acid esters used were PNP-decanoate (C10), PNP-dodecanoate C12, PNP-myristate (C14) and PNP-palmitate (C16). The optimum temperature for the activity of EstATII was determined at a temperature range 30-80° C. The optimum pH for the activity of EstATII was measured at a pH range (3-9.5) using the following buffers: 50 mM sodium acetate (pH 3-5.5), 50 mM sodium phosphate (pH 6, 7.5) and 50 mM Tris-HCL (pH 7.5-9.5). Formation of pNP was measured at 348 nm (the pH-independent isosbestic wavelength of pNP)^21. The effect of NaCl concentration on enzyme activity was measured at different NaCl concentrations (0-4.5 M) under standard assay conditions. To assess the effect of metal ions on enzyme activity, cations were added to a final concentration of 1 mM, and relative activity measured at the above-described standard conditions. The effect of detergents (at final concentrations 0.1 and 1%) and inhibitors (final concentration 1 mM) on enzyme activity was tested at the above-described standard assay conditions.

[2] = Effect of metal ions on EstATII activity
Experimental: as §1

[3] = Effect of pH on EstATII esterase activity (pNP formation measured at 348 nm)
Experimental: as §1

[4] = Effect of NaCl concentration on EstATII activity; details: for Relative Activity: absence of NaCl defined as 100%
Experimental: as §1

[5] = Effect of temperature on EstATII esterase activity (p-nitrophenyl butyrate hydrolysis)
Experimental: as §1

[6] = Effect of detergents, reducing and modifying agents on EstATII activity; details: standard assay conditions
Experimental: as §1

[7] = cation 1 mM, standard conditions

B1: EstATII: novel esterase from the lower convective layer of the Atlantis II brine pool, Red Sea; 314 amino acids, HSL family (protein)
chain: MSRYVDELYRNPGQPGLRALLRGMLKLLFRGLIRPPVPFAVQALVLRLLTLGMPLARGVTRSTEQIAGRPCMWHRPAAGGNGRVLLYLHGGAFVIGSPQTHRGICSALASRGQFDVCALDYRLAPAHPAPAACDDAVAAYQALLQRGYAPAQITLIGDSAGGNLVLVTAQKLAALKLPLPASLVCFSPVTDMTAEQLHAPAAGDPLLHPSWLDSARDAYCPAGLDRADPMVSPLFGQLKGLPPLLLQVGEDEVLLNDSLRLAEAARAADVAVRLERYEDLWHVFQAHAGLLHSADAALQRVVDFVNSAQTDSVS
Activity towards short-chain fatty acid esters ([1]; C2, C4 and C5 p-nitrophenol esters): active | Activity towards long-chain fatty acid esters ([1]; C10, C12, C14 and C16 p-nitrophenol esters): no activity | Relative Activity ([1]; substrate pNP-acetate (C2)): 100 ± 3% | Relative Activity ([1]; substrate pNP-butyrate (C4)): 61.9 ± 0.8% | Relative Activity ([1]; substrate pNP-decanoate (C10)): 0% | Relative Activity ([1]; substrate pNP-dodecanoate (C12)): 0% | Relative Activity ([1]; substrate pNP-myristate (C14)): 0% | Relative Activity ([1]; substrate pNP-palmitate (C16)): 0% | Relative Activity ([1]; substrate pNP-valerate (C5)): 40.5 ± 1.2% | Relative activity with Ba^2+ [2, 7]: 158% and 158.3 ± 2.2% | Relative activity with Co^2+ [2, 7]: 104% and 104 ± 2% | Relative activity with Cu^2+ [2, 7]: 94.8 ± 0.1% | Relative activity with Fe^3+ [2, 7]: 96.2 ± 0.7% | Relative activity with Hg^2+ [2, 7]: 60.9 ± 0.4% | Relative activity with Mg^2+ [2, 7]: 90.6 ± 3.6% | Relative activity with Mn^2+ [2, 7]: 111% and 111.8 ± 0.1% | Relative activity with Zn^2+ [2, 7]: 85.2 ± 4.4% | Relative activity with Ca^2+ ([2]; cation 1 mM, standard conditions (65 °C, Tris-HCl pH 8, pNPB)): 94.8 ± 3% | Activity with the rest of the metal ions tested ([2]; metal ions other than Barium, Manganese, Cobalt, 1 mM): above 60% | Resistance to inhibition by all metal ions tested ([2]; significantly inhibited = relative activity below 50%): showed resistance to inhibition by all metal ions tested | Effect of EDTA chelation on enzyme activity ([2]; with and without EDTA chelation): not affected | Relative Activity ([3]; pH 3, 50 mM sodium acetate, pH 8.5 defined as 100%): 0% | Relative Activity ([3]; pH 4, 50 mM sodium acetate, pH 8.5 defined as 100%): 0% | Relative Activity ([3]; pH 5, 50 mM sodium acetate, pH 8.5 defined as 100%): 0% | Relative Activity ([3]; pH 5.5, 50 mM sodium acetate, pH 8.5 defined as 100%): 13.1 ± 0.2% | Relative Activity ([3]; pH 6, 50 mM sodium phosphate, pH 8.5 defined as 100%): 38.5 ± 1.2% | Relative Activity ([3]; pH 6.5, pH 8.5 defined as 100%): 43.2 ± 2% | Relative Activity ([3]; pH 7, pH 8.5 defined as 100%): 81.5 ± 1% | Relative Activity ([3]; pH 7.5 (Na Phosphate), pH 8.5 defined as 100%): 88 ± 1% | Relative Activity ([3]; pH 7.5 (Tris.HCl), pH 8.5 defined as 100%): 66.1 ± 0.2% | Relative Activity ([3]; pH 8, 50 mM Tris-HCl, pH 8.5 defined as 100%): 84.7 ± 1.1% | Relative Activity ([3]; pH 8.5, optimum condition (defined as 100%)): 100 ± 3% | Relative Activity ([3]; pH 9, 50 mM Tris-HCl, pH 8.5 defined as 100%): 60 ± 2% | Activity of the enzyme ([3]; pH lower than 5.5): No activity | Activity of the enzyme ([3]; pH=7-9): > 50% | pH (highest activity) ([3]; range tested pH 3-9): 8.5 | Relative Activity ([4]; 0.5M Sodium Chloride): 102.2 ± 2% | Relative Activity ([4]; 1M Sodium Chloride): 99.9 ± 0.5% | Relative Activity ([4]; 1.5M Sodium Chloride): 120 ± 1% | Relative Activity ([4]; 2M Sodium Chloride): 122.9 ± 1% | Relative Activity ([4]; 2.5M Sodium Chloride): 102.4 ± 1.8% | Relative Activity ([4]; 3M Sodium Chloride): 73.8 ± 3.8% | Relative Activity ([4]; 3.5M Sodium Chloride): 65.3 ± 4.6% | Relative Activity ([4]; 4M Sodium Chloride): 53.8 ± 1% | Relative Activity ([4]; 4.5M Sodium Chloride): 39.7 ± 1.7% | NaCl concentration of highest activity ([4]; range tested 0M-4.5M NaCl): 2 M | Activity ([4]; up to 4M NaCl): > 50% | Enzyme activity ([4]; up to 4.5M NaCl): maintained | Relative Activity ([5]; 30 °C, pNPB 0.1 mM, 50 mM Tris-HCl pH 8, 65 °C defined as 100%): 56.3 ± 0.8% | Relative Activity ([5]; 35 °C, 65 °C defined as 100%): 59.9 ± 1% | Relative Activity ([5]; 40 °C, 65 °C defined as 100%): 65.3 ± 1.8% | Relative Activity ([5]; 45 °C, 65 °C defined as 100%): 86.9 ± 0.9% | Relative Activity ([5]; 50 °C, 65 °C defined as 100%): 90.9 ± 2% | Relative Activity ([5]; 55 °C, 65 °C defined as 100%): 93.9 ± 1% | Relative Activity ([5]; 60 °C, 65 °C defined as 100%): 95.9 ± 0.3% | Relative Activity ([5]; 65 °C, optimum condition (defined as 100%)): 100 ± 0.2% | Relative Activity ([5]; 70 °C, 65 °C defined as 100%): 91.6 ± 0.15% | Relative Activity ([5]; 75 °C, 65 °C defined as 100%): 76.7 ± 0.3% | Temp ° C. (apparent optimum temperature) ([5]; range tested 30-80 °C): 65 °C | Activity of the enzyme ([5]; temperatures ranging from 45° C. to 75° C.): > 70% | Relative Activity ([6]; CTAB 1 mM): 13.1 ± 1.9% | Relative Activity ([6]; DTT 1 mM): 78.9% and 78.9 ± 4.2% | Relative Activity ([6]; SDS 0.1%): 6% and 6.1 ± 0.4% | Relative Activity ([6]; Triton X-100 0.1%): 42.3% and 42.2 ± 1.1% | Relative Activity ([6]; Tween 20 0.1%): 87.5% and 87.5 ± 2.3% | Relative Activity ([6]; Tween 20 1%): 40.1% and 40.1 ± 0.9% | Relative Activity ([6]; Tween 80 1%): 54.5% and 54.5 ± 0.7% | Relative Activity ([6]; β-mercaptoethanol 1 mM): 117.9% and 117.9 ± 0.3%
